The record followed here is publication PMC8357123, “Modeling of DNA binding to the condensin hinge domain using molecular dynamics simulations guided by atomic force microscopy” (PLoS Computational Biology, 2021).

The target of the test is T1, Smc4 (S. cerevisiae (budding yeast), UniProt Q12267 1-1418).
T1 construct: Smc4, subunit of the budding yeast condensin complex; The holo-complex was purified over HisTrap and Strep-Tactin; also called condensin subunit Smc4
T1 sequence (looked up): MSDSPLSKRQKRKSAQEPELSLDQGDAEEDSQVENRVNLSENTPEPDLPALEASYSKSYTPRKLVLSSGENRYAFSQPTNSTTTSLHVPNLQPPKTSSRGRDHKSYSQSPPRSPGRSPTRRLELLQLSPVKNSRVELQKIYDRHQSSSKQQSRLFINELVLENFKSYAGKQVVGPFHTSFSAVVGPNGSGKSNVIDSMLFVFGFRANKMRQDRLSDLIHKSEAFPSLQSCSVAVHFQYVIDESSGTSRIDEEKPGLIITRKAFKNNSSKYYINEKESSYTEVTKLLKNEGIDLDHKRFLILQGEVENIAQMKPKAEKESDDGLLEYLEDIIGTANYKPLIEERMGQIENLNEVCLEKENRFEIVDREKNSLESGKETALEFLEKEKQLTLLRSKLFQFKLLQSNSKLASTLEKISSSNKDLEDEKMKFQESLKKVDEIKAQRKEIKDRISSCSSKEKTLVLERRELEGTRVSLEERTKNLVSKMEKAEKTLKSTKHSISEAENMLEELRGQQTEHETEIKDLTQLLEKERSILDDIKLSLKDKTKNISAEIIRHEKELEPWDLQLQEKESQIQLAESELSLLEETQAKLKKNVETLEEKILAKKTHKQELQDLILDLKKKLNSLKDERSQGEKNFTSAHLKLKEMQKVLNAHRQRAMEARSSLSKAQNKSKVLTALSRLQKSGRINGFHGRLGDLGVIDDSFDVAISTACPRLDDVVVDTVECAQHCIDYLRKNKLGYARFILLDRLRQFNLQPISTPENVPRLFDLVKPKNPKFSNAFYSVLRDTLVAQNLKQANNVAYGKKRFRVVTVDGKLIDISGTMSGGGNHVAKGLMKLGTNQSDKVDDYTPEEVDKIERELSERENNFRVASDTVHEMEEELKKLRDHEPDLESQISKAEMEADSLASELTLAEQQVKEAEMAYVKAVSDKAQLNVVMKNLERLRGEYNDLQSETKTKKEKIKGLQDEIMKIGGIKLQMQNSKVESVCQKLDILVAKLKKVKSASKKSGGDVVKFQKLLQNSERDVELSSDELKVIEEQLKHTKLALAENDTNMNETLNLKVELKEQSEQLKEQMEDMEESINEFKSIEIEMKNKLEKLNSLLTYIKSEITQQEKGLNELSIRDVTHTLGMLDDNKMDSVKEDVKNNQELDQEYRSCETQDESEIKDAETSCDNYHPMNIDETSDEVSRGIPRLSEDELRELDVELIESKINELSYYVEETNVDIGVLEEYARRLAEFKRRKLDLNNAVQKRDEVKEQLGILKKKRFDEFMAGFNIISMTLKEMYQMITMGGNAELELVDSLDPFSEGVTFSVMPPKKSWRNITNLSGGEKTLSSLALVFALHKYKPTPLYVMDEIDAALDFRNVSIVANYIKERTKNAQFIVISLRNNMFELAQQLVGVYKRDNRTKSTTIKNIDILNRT
Briefly: high-speed atomic force microscopy (HS-AFM); 1 nM purified condensin holo-complex on bare mica in 40 mM Tris-HCl pH7.5, 125 mM KCl, 10 mM MgCl2, 1 mM DTT, 4 mM ATP; room temperature; 150 ms/frame; 36 molecules observed. Conditions: both partners purified.

B1: Smc2 (natural protein, S. cerevisiae (budding yeast), UniProt P38989 1-1170, looked up)
chain: MKVEELIIDGFKSYATRTVITDWDPQFNAITGLNGSGKSNILDAICFVLGIASMSTVRASSLQDLIYKRGQAGVTKASVTIVFDNTDKSNSPIGFTNSPQISVTRQVVLGGTSKYLINGHRAPQQSVLQLFQSVQLNINNPNFLIMQGKITKVLNMKPSEILSLIEEAAGTKMFEDRREKAERTMSKKETKLQENRTLLTEEIEPKLEKLRNEKRMFLEFQSTQTDLEKTERIVVSYEYYNIKHKHTSIRETLENGETRMKMLNEFVKKTSEEIDSLNEDVEEIKLQKEKELHKEGTISKLENKENGLLNEISRLKTSLSIKVENLNDTTEKSKALESEIASSSAKLIEKKSAYANTEKDYKMVQEQLSKQRDLYKRKEELVSTLTTGISSTGAADGGYNAQLAKAKTELNEVSLAIKKSSMKMELLKKELLTIEPKLKEATKDNELNVKHVKQCQETCDKLRARLVEYGFDPSRIKDLKQREDKLKSHYYQTCKNSEYLKRRVTNLEFNYTKPYPNFEASFVHGVVGQLFQIDNDNIRYATALQTCAGGRLFNVVVQDSQTATQLLERGRLRKRVTIIPLDKIYTRPISSQVLDLAKKIAPGKVELAINLIRFDESITKAMEFIFGNSLICEDPETAKKITFHPKIRARSITLQGDVYDPEGTLSGGSRNTSESLLVDIQKYNQIQKQIETIQADLNHVTEELQTQYATSQKTKTIQSDLNLSLHKLDLAKRNLDANPSSQIIARNEEILRDIGECENEIKTKQMSLKKCQEEVSTIEKDMKEYDSDKGSKLNELKKELKLLAKELEEQESESERKYDLFQNLELETEQLSSELDSNKTLLHNHLKSIESLKLENSDLEGKIRGVEDDLVTVQTELNEEKKRLMDIDDELNELETLIKKKQDEKKSSELELQKLVHDLNKYKSNTNNMEKIIEDLRQKHEFLEDFDLVRNIVKQNEGIDLDTYRERSKQLNEKFQELRKKVNPNIMNMIENVEKKEAALKTMIKTIEKDKMKIQETISKLNEYKRETLVKTWEKVTLDFGNIFADLLPNSFAKLVPCEGKDVTQGLEVKVKLGNIWKESLIELSGGQRSLIALSLIMALLQFRPAPMYILDEVDAALDLSHTQNIGHLIKTRFKGSQFIVVSLKEGMFANANRVFRTRFQDGTSVVSIM
notes: Smc2, subunit of the budding yeast condensin complex; The holo-complex was purified over HisTrap and Strep-Tactin; also called condensin subunit Smc2
Take B1: the binding result is listed as “binds”.
